Data published in article PMC12416549 (2024).
Changes are numbered by the printed parent chain. In names and notes the source's numbering stands.

Target: T1, TNFR1 (Homo sapiens, UniProt P19438)
T1 chain: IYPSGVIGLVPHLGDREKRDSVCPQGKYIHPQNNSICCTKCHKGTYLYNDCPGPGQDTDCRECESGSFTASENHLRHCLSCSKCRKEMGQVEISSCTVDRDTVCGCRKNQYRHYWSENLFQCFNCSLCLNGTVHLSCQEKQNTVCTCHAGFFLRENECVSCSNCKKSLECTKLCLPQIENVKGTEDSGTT
Test: yeast display SC50

B1: F31V (designed binder)
chain: MTLQELLREEALRRAEAEAFRYALELLAEKVPEQKEYLLDLAEEIESQIRSLSGVDVEDVRKFLDKEWAWVKELLAEHPAELAEVEAARAARLAELRAEVEAKVAA
apparent Kd (screen): 0.653 nM

B2: E46K (designed binder)
chain: B1 chain with V31F, E46K
apparent Kd (screen): 0.593 nM

B3: Y22T (designed binder)
chain: B1 chain with Y22T, V31F
apparent Kd (screen): 0.49 nM

B4: D65G (designed binder)
chain: B1 chain with V31F, D65G
apparent Kd (screen): 0.593 nM

B5: A106N (designed binder)
chain: B1 chain with V31F, A106N
apparent Kd (screen): 1.69 nM

B6: E33A (designed binder)
chain: B1 chain with V31F, E33A
apparent Kd (screen): 0.208 nM

B7: V57W (designed binder)
chain: B1 chain with V31F, V57W
apparent Kd (screen): 1.27 nM

B8: T2C (designed binder)
chain: B1 chain with T2C, V31F
apparent Kd (screen): 2.73 nM

B9: Y37L (designed binder)
chain: B1 chain with V31F, Y37L
apparent Kd (screen): 7.78 nM

B10: A87Q (designed binder)
chain: B1 chain with V31F, A87Q
apparent Kd (screen): 0.653 nM

B11: A11K (designed binder)
chain: B1 chain with A11K, V31F
apparent Kd (screen): 0.539 nM

B12: L39Q (designed binder)
chain: B1 chain with V31F, L39Q
apparent Kd (screen): 1.27 nM

B13: T2L (designed binder)
chain: B1 chain with T2L, V31F
apparent Kd (screen): 0.49 nM

B14: V85H (designed binder)
chain: B1 chain with V31F, V85H
apparent Kd (screen): 1.05 nM

B15: D65Y (designed binder)
chain: B1 chain with V31F, D65Y
apparent Kd (screen): 0.653 nM

B16: A42R (designed binder)
chain: B1 chain with V31F, A42R
apparent Kd (screen): 2.25 nM

B17: E9Y (designed binder)
chain: B1 chain with E9Y, V31F
apparent Kd (screen): 1.05 nM

B18: V60C (designed binder)
chain: B1 chain with V31F, V60C
apparent Kd (screen): 0.79 nM

B19: R61D (designed binder)
chain: B1 chain with V31F, R61D
apparent Kd (screen): 11.4 nM

B20: A76W (designed binder)
chain: B1 chain with V31F, A76W
apparent Kd (screen): 0.446 nM

B21: R13V (designed binder)
chain: B1 chain with R13V, V31F
apparent Kd (screen): 0.335 nM

B22: D56M (designed binder)
chain: B1 chain with V31F, D56M
apparent Kd (screen): 0.956 nM
